Values of other authors in patent US20100216667A1, “METHOD FOR DETERMINING COMPATIBILITY OF AN ACTIVE PHARMACEUTICAL INGREDIENT WITH MATERIALS” (priority 2008, published 2010).

Settings: pre-filled syringes with uncoated stoppers and Polysorbate-80

Substance: EPREX: marketed product whose active ingredient is erythropoietin
- Pure red cell aplasia (PRCA) in treated patients: increase in pure red cell aplasia (PRCA)
